# Assay results as given in patent publication US20180066066A1 (University of Texas, published 2018).
# B1: Chi46 (antibody, V domains shown)
# VH: EEQLVESGGGLVQPEGSLTLTCTASGFSFSASYYIYWVRQAPGKGLEGIAYITGDDDKRTYYANWAKGRFTISKTSTTVTLQMTSLTAADTATYFCTRNLPDELWGPGTLVTVSS
# VL: QAVVTQTPSSVSAAVGGTVTISCQSSESVYSYKNLAWYQQKPGQPPRLLIWQASRLSSGVSSRFSGSGSGTQFTLTISGVQCDDAATYYCQGTYYSSAWDFVFGGGTEVMVE
# notes: also called parental rabbit/human Fc chimera of Rab46
# Experiments:
# [1] = target: human HER3 receptor on cells (human, UniProt P21860 20-1342); assay: cell-based or functional assay
# human HER3 receptor on cells, sequence (P21860 20-1342): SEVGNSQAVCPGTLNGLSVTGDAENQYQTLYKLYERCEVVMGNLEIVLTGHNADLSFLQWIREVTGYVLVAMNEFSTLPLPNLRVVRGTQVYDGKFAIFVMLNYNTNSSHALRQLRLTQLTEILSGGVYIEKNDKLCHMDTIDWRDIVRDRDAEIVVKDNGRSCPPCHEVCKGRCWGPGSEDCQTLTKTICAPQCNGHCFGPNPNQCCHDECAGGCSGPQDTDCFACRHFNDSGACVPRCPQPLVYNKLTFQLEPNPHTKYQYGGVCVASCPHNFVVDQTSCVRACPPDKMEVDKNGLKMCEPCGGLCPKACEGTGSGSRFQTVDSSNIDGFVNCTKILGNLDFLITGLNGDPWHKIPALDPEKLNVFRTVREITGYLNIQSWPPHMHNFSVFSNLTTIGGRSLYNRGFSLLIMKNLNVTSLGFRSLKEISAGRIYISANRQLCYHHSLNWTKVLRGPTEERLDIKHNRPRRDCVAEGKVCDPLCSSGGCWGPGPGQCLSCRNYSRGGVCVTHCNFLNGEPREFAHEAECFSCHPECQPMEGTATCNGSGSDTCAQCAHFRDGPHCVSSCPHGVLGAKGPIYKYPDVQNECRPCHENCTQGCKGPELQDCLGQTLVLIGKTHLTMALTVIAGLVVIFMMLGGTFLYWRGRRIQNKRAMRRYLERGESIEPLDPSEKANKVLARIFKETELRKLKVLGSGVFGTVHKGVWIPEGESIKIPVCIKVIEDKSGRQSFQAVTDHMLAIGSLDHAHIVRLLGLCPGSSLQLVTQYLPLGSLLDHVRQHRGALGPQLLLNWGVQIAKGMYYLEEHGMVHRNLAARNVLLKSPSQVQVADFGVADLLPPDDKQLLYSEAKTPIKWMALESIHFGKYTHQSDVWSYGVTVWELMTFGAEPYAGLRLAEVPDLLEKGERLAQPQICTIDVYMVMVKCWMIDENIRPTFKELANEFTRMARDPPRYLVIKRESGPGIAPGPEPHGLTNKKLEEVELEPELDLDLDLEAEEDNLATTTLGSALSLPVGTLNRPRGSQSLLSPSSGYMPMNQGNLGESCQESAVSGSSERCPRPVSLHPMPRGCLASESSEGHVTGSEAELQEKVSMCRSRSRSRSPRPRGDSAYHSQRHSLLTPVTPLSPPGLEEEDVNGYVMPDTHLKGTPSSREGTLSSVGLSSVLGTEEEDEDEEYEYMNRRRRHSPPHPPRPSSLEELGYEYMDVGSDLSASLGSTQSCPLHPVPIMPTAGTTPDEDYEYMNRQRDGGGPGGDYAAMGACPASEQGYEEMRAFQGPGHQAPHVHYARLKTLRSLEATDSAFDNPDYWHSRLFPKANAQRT
# [2] = target: T1, human HER3/ErbB3 extracellular domain (human, UniProt P21860 20-643); assay: ELISA on human HER3 ECD
# T1 construct: extracellular domain; the range 1-643 of M34309 is printed only for the immunogen; also called Human HER3 ECD; recombinant human HER3
# T1 sequence (P21860 20-643): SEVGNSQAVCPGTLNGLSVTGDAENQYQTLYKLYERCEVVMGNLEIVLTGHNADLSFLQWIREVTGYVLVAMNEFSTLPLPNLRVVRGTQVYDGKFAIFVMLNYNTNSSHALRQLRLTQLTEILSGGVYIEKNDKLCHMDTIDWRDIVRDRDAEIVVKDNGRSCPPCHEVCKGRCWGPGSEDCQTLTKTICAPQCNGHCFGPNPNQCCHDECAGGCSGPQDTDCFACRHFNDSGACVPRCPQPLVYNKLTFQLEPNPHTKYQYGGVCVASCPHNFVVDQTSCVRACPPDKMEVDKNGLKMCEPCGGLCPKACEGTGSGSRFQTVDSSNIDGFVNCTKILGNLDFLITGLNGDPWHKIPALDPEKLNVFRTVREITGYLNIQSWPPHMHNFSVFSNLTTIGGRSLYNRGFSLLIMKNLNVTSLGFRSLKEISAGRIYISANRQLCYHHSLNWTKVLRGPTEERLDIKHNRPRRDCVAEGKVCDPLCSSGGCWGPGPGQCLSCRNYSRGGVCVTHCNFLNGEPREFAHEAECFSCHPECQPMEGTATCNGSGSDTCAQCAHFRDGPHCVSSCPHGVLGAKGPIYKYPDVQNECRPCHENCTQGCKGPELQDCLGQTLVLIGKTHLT
# [3] = target: T1, human HER3/ErbB3 extracellular domain; assay: SPR, Biacore T-100, HER3 ECD
# Mouse HER3 ECD = target: T2, Mouse HER3 ECD (mouse, UniProt Q61526 20-641); assay: ELISA on mouse HER3 ECD; column uncertain
# T2 construct: extracellular domain; also called mouse HER3 ECD domains
# T2 sequence (Q61526 20-641): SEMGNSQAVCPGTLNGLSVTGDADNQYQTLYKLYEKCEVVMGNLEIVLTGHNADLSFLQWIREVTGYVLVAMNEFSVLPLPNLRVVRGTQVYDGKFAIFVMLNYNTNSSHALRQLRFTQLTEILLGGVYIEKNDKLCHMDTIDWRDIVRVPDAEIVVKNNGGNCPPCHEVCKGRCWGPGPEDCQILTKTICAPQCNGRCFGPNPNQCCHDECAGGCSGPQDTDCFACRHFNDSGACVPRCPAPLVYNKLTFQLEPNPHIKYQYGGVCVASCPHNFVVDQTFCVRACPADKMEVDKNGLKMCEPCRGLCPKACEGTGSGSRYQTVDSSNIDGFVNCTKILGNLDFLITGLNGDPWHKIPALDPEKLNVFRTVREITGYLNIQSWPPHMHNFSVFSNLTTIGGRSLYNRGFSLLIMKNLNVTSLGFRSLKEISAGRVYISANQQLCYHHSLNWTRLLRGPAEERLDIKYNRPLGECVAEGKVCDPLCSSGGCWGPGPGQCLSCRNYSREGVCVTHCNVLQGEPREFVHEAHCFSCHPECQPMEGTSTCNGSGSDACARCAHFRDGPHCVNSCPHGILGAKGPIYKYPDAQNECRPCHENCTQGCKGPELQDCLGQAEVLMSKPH
binder,measurement,setting,value
B1,"pHER3 inhibition (IC50, µg/ml)",[1],0.033 µg/ml
same,EC50,[2],2.7 ng/mL
same,Kd,[3],3.32 nM
same,koff,[3],0.000458 s⁻¹
same,kon,[3],138000 M⁻¹ s⁻¹
same,EC50,Mouse HER3 ECD,5.9 ng/mL
